Results from publication PMC13071878, “Yeast Display Technology Enables Rapid Discovery of Low-Nanomolar Macrocyclic Peptide Inhibitors of Human Angiotensin-Converting Enzyme 2” (Journal of Medicinal Chemistry, 2026).
“And” between values parts separate entries of the source, which are not always exact repeats. Equal entries are not always repeated. Where two headings read alike, the source gives them in different places.

Assays:
[1] = target: T1, hACE2 (Homo sapiens, UniProt Q9BYF1); parameters: method as in ref 4 (SI list; Huang et al. 2003); settings: phage display DX peptides; ref 4 (SI list; Huang et al. 2003); cited from earlier work
[2] = target: T1, hACE2; parameters: method as in ref 4 (SI list; Huang et al. 2003); settings: phage display DX peptides, ref 4 (SI list; Huang et al. 2003), cited from earlier work; for Ki: where not reported, calculated by Cheng-Prusoff, Km 23 μM
[3] = target: T1, hACE2; parameters: method as in ref 3 (SI list; Bedding et al. 2024); settings: mRNA display cyclic peptides; ref 3 (SI list; Bedding et al. 2024); cited from earlier work
[4] = target: T1, hACE2; parameters: method as in ref 2 (SI list; Harman et al. 2023); settings: phage display bicyclic peptides; ref 2 (SI list; Harman et al. 2023); cited from earlier work
[5] = target: T1, hACE2; parameters: method as in ref 2 (SI list; Harman et al. 2023); settings: phage display bicyclic peptides, ref 2 (SI list; Harman et al. 2023), cited from earlier work; for Ki: where not reported, calculated by Cheng-Prusoff, Km 23 μM
[6] = target: T1, hACE2; parameters: method as in ref 3 (SI list; Bedding et al. 2024); settings: mRNA display cyclic peptides, ref 3 (SI list; Bedding et al. 2024), cited from earlier work; for Ki: where not reported, calculated by Cheng-Prusoff, Km 23 μM
[7] = target: T2, hACE1 (Homo sapiens, UniProt P12821); assay: biochemical
T2 construct: purchased R&D Systems
T2 sequence (P12821 30-1306): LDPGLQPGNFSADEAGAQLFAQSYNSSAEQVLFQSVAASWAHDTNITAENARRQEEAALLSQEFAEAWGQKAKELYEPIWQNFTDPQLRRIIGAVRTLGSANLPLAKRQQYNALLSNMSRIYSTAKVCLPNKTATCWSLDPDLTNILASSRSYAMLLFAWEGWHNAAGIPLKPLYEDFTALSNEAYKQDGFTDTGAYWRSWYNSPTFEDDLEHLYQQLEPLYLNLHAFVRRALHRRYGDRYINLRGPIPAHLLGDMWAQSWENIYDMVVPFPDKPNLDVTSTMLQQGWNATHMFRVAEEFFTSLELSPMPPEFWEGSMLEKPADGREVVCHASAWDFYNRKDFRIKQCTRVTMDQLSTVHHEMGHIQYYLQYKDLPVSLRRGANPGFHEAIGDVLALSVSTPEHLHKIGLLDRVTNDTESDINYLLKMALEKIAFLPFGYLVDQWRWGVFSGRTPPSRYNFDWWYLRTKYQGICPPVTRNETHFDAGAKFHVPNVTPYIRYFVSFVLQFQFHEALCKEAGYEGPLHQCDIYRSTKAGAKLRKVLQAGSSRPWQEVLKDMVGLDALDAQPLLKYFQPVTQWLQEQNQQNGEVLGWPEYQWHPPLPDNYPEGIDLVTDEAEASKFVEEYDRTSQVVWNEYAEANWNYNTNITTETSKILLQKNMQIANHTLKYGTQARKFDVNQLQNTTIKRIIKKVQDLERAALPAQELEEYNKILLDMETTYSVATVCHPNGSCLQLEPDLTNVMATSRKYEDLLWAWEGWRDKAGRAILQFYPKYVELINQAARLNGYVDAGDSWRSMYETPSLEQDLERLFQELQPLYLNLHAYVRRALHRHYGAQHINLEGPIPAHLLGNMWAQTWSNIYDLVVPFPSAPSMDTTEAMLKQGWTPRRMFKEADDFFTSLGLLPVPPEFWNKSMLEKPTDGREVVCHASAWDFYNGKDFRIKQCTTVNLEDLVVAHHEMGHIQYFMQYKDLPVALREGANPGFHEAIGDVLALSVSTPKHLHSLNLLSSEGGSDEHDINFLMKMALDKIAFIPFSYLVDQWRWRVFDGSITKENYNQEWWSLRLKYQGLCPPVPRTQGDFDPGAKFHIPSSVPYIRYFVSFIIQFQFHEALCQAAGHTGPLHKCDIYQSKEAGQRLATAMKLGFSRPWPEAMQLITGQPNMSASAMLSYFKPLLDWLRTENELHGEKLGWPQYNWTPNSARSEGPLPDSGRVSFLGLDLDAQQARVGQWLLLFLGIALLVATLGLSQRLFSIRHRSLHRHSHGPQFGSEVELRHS
Procedure: The activity assay was performed by incubating 0.25 nM of hACE2 with 50 μM fluorogenic substrate Mca-Ala-Pro-Lys­(Dnp)–OH (MedChemExpress, Monmouth Junction, NJ, USA) and 3-fold MP dilutions (ranging from 0.03 nM to 100 μM). […] All reagents were diluted in 10 mM Tris–HCl, pH 7.4, 300 mM NaCl, 100 μM ZnCl2, 0.1% w/v BSA, and 0.1% v/v DMSO assay buffer. The measurements were performed on a Berthold TriStar LB 941 microplate reader (Berthold Technologies, Bad Wildbad, Germany) using flat-bottom 96-well half area Corning Costar plates (Corning, New York, USA). The enzymatic reactions were performed at 25 °C for 90 min, under shaking with a maximum excitation wavelength (λex) of 320 nm and maximum emission wavelength (λem) of 405 nm. The initial velocities were monitored as changes in fluorescence intensity. Half-maximum inhibitory concentration (IC50) values were determined using GraphPad Prism v8.2.1 software (GraphPad software Inc., San Diego, CA, USA). […] Reactions were initiated by adding hACE2 (final concentration 0.25 nM) to the fluorogenic substrate in assay buffer at 25 °C. Fluorescence was recorded as described earlier (λex = 320 nm, λem = 405 nm) using a Berthold TriStar LB 941 microplate reader (Berthold Technologies, Bad Wildbad, Germany). Initial velocities (V 0) were plotted against substrate concentrations [S] and analyzed via nonlinear regression using a one-site specific binding model using GraphPad Prism v8.2.1 software (GraphPad software Inc., San Diego, CA, USA). […] All reagents were diluted in 10 mM Tris-HCl, pH 7.4, 300 mM NaCl, 100 μM ZnCl2, 0.1% w/v BSA, and 0.1% v/v DMSO buffer. Measurements and data analysis were performed as mentioned above.

T1 sequence (Q9BYF1 19-615): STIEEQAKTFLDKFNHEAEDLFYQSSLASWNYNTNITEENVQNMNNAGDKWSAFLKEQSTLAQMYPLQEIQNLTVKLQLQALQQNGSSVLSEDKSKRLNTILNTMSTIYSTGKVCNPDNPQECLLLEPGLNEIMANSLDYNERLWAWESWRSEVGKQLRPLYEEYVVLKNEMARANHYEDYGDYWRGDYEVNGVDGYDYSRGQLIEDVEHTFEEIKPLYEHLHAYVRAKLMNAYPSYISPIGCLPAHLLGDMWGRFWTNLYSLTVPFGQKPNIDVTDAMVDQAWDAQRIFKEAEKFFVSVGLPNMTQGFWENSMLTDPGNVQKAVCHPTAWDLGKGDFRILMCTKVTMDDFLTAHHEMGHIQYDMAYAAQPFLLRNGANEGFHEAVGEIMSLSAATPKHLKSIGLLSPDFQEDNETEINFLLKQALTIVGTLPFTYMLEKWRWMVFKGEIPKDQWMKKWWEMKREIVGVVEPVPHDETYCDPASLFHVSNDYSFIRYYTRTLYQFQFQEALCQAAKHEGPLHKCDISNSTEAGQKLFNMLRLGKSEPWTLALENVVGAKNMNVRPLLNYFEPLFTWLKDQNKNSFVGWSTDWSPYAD

## GDRLHCKPQRQSPWMKCQHLDP [DX512]
[1]
  Kd: 96 nM
[2]
  IC50: 60 nM
  Ki: 139 nM

## AGQKECKFGYPHCLPWGT [DX530]
[2]
  IC50: 30000 nM

## Y*VFRSLRTPFIVC [peptide1]
[3]
  Kd: 0.4 nM

## ACHRDFPRCTWETQWCA [BCY15297]
[4]
  Kd: 11000 nM
[5]
  IC50: 12000 nM
  Ki: 5200 nM

## AGSDWCGTWNNPCFHQGT [DX531]
[2]
  IC50: 500 nM
  Ki: 540 nM

## ACLRSYNLCPRINCA [BCY15294]
[4]
  Kd: 850 nM
[5]
  IC50: 2400 nM
  Ki: 1100 nM

## y*VQRPIRNVRLIRC [peptide24]
[3]
  Kd: 430 nM

## GDFSPCKALRHSPWWVCPSGDP [DX602]
[1]
  Kd: 74.4 nM
[2]
  IC50: 128 nM
  Ki: 121 nM

## Y*FQRSVRLPYLRC [peptide2]
[3]
  Kd: 0.04 nM

## y*LSVNRVFAYRIIYKC [peptide23]
[3]
  Kd: 9.1 nM

## GDGFTCSPIRMFPWFRCDLGDP [DX601]
[1]
  Kd: 56.3 nM
[2]
  IC50: 56.8 nM
  Ki: 30.9 nM

## ACGRQFCHTLMPRHLCA [BCY15292]
[4]
  Kd: 1.2 nM
[5]
  IC50: 2.6 nM
  Ki: 1.2 nM

## y*IRQFTSRVPLHC [peptide21]
[3]
  Kd: 3.6 nM

## GSRGFCRDSSCSFPAP [DX525]
[2]
  IC50: 1000 nM
  Ki: 1700 nM

## ACHKFPCRDPQQYLFCA [BCY15296]
[4]
  Kd: 29 nM
[5]
  IC50: 47 nM
  Ki: 21 nM

## Y*WTLFVFRDGVLPVWSC [peptide9]
[3]
  Kd: 50.3 nM
[6]
  IC50: 2050 nM
  Ki: 383 nM

## GDLHACRPVRGDPWWACTLGDP [DX513]
[1]
  Kd: 170 nM
[2]
  IC50: 90 nM
  Ki: 126 nM

## y*VVLRPLRDLGRVFC [peptide5]
[3]
  Kd: 9 nM

## Y*VLSSPRGALRALRC [peptide3]
[3]
  Kd: 290 nM

## y*ARPLRHRPWYVSWC [peptide6]
[3]
  Kd: 3.3 nM

## GDRYLCLPQRDKPWKFCNWFDP [DX599]
[1]
  Kd: 48.6 nM
[2]
  IC50: 114 nM
  Ki: 46.5 nM

## ACTRPWCHSLLPRATCA [BCY15293]
[4]
  Kd: 1.6 nM
[5]
  IC50: 4.9 nM
  Ki: 2.2 nM

## y*DAYTRRTHRNPRLCQC [peptide7]
[3]
  Kd: 32 nM

## y*RLHRSPWAHFGFAC [peptide20]
[3]
  Kd: 228 nM
[6]
  IC50: 1980 nM
  Ki: 370 nM

## y*FNRSGKLLFLYC [peptide4]
[3]
  Kd: 240 nM

## Y*AVLLHKGKFVFTYGC [peptide12]
[3]
  Kd: 610 nM
[6]
  IC50: 39500 nM
  Ki: 7390 nM

## ACVRSHCSSLLPRIHCA [BCY15291]
[4]
  Kd: 0.4 nM and 0.44 nM
[5]
  IC50: 2 nM
  Ki: 0.9 nM

## y*SYQYRGRFHRQC [peptide19]
[3]
  Kd: 78 nM

## ACGREELPCRIKLCA [BCY15298]
[5]
  IC50: > 40000 nM

## AGWEVCHWAPMMCKHGGT [DX529]
[2]
  IC50: 400 nM
  Ki: 380 nM

## y*TYQYRDRFFRPC [peptide22]
[3]
  Kd: 14.8 nM

## CC(=O)NCC(=O)N[C@@H](CC(=O)O)C(=O)N[C@@H](Cc1ccc(O)cc1)C(=O)N[C@@H](CO)C(=O)N[C@@H](Cc1cnc[nH]1)C(=O)N[C@H]1CSSC[C@@H](C(=O)N[C@H](C(=O)N[C@@H](Cc2ccc(O)cc2)C(=O)N2CCC[C@H]2C(=O)N[C@@H](CC(=O)O)C(=O)N2CCC[C@H]2C(=O)N[C@@H](CCC(=O)O)C(=O)NCC(=O)NCC(=O)NCC(N)=O)[C@@H](C)O)NC(=O)[C@H](CCCCN)NC(=O)[C@H](Cc2c[nH]c3ccccc23)NC(=O)[C@H](Cc2c[nH]c3ccccc23)NC(=O)[C@@H]2CCCN2C(=O)[C@H](Cc2ccc(O)cc2)NC(=O)[C@H](Cc2ccc(O)cc2)NC(=O)[C@H](CCCNC(=N)N)NC(=O)[C@H](CC(C)C)NC(=O)[C@@H]2CCCN2C(=O)[C@H](CO)NC1=O [DX600]
[7]
  IC50: > 100000 nM

## Y*VKRNVYEGYKPC [peptide15]
[3]
  Kd: 7.3 nM

## y*VHIIYWKNGLPRITC [peptide14]
[3]
  Kd: 82.3 nM
[6]
  IC50: 9720 nM
  Ki: 1820 nM

## GSRIGCRDSRCNWWAP [DX524]
[2]
  IC50: 600 nM
  Ki: 540 nM
